Test: yeast display, Sf9 membrane polyspecificity reagent, FACS + sequencing; frameworks hold sequencing errors
In short: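 Synthetic nanobody libraries on Saccharomyces cerevisiae BJ5465 were galactose-induced for 36–48 hours, stained 1 hour at 4 °C with 10% biotinylated, detergent-solubilized Sf9 membrane reagent and enriched on streptavidin microbeads. FACS then separated cells into low and high (top ~1%) gates by anti-HA (expression) and streptavidin (reagent binding) fluorescence. Genes were colony-PCR amplified, MiSeq 2 × 250 sequenced and CDR-length filtered. A clone's polyreactivity label is that of its gate of origin.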

Row | Sequence | polyreactivity (PSR sort gate)
1 | QVQLVESGGGLVQAGGSLRLSCAASGGIFSPNAMGWYRQAHGKERELVASISSNGGSTNYADSVKGRFTISRDNAKNTVYLQMNSLKPEDTAVYYCAGLQKRRSYWRPFYWGQGTQVTVSS | low polyreactivity
2 | QVQLVESGGGLVQAGGSLRLSCAASGGIFSPNAMGWYRQAPGKERELVAAISSNGGSTNYADSVKGRFTISRDNAKNTVYLQMNSLKPEDTAVYYCAGLQKRRSYWRPFYWGQGTQVTVSS | low polyreactivity
3 | QVQLVESGGGLVQAGGSLRLSCAASGGIFSSYAMGWYRQAPGKERELVATITSRGGSTYYADSVKGRFTISRDNAKNTVYLQMNSLKPEDTAVYYCAKEYRYYRRRYDYWGQGTQVTVSS | high polyreactivity
4 | QVQLVESGGGLVQAGGSLRLSCAASGGIFSTYTMGWYRQAPGKERELVAAISQSGGTTYYADSVKGRFTISRDNAKNTVYLQMNSLKPEDTAVYYCAAEPTQADYDYWGQGTQVTVSS | low polyreactivity
5 | QVQLVESGGGLVQAGGSLRLSCAASGGIFVQYTMGWYRQAPGKERELVAAISTGGSTYYADSVKGRFTISRDNAKNTVYLQMNSLKPEDTAVYYCAVVYRSQYSRYTSQWKEYYWGQGTQVTVSS | low polyreactivity
6 | QVQLVESGGGLVQAGGSLRLSCAASGGIFVRYAMGVYRQAPGKERELVAAITGTGSSTYYADSVKGRFTISRDNAKNTVYLQMNSLKPEDTAVYYCAAARYSNYGYWGQGTQVTVSS | high polyreactivity
7 | QVQLVESGGGLVQAGGSLRLSCAASGGIFWANAMGWHRQAPRKERELVATIHTIGDGTNYADSVKGRFTISRDNAKNTVYLQMNSLKPEDTAVYYCAAPYYYFAVYYGYIFEYDYWGQGTQVTVSS | low polyreactivity
8 | QVQLVESGGGLVQAGGSLRLSCAASGGIFYHNAMGWYRQAPGKERELVAAISGRGGRTYYADSVKGRFTISRDNAKNTVYLPMNSLKPEDTAVYYCNAVVYSPYRYEYWGQGTQVTVSS | low polyreactivity
9 | QVQLVESGGGLVQAGGSLRLSCAASGGIFYHNAMGWYRQAPGKERELVAAISGRGGRTYYADSVKGRFTISRDNAKNTVYLQMNSLKPEDTAVYYCAAGGQARHDYWGQGTQVTVSS | low polyreactivity
10 | QVQLVESGGGLVQAGGSLRLSCAASGGIFYINAMGWYRQAPGKERELVAAISRDGTITYYADSVKGRFTISRDNAKNTVYLQMNSLKPEDTAVYYCAADASIQSWYSIYDYWGQGTQVTVSS | high polyreactivity
11 | QVQLVESGGGLVQAGGSLRLSCAASGGIFYLYAMGWYRQAPGKERELVASINWRSASTYYADSVKGRFTISRDNAKNTVYFQMNSLKPEDTAVYYCNVQWYGGYDYWGQGTQVTVSS | low polyreactivity
12 | QVQLVESGGGLVQAGGSLRLSCAASGGIFYNYAMGWYIQAPGKERELVAAITYSGVRTNYADSVKGRFTISRDNAKNTVYLQMNSLKPEDTAVYYCNAAVVYVKMDYWGQGTQVTVSS | low polyreactivity
13 | QVQLVESGGGLVQAGGSLRLSCAASGGIFYPNAMGWYRQAPAKERELVAANTSGGSTSYADSVKGRFTISRDNAKDTVYLQMNSLKPEDTAVYYCAASTTAYAYVNYGSWGQGTQVTVSS | low polyreactivity
14 | QVQLVESGGGLVQAGGSLRLSCAASGGIFYSNAMGWYRPAPGKERELVAAISSSGGSTYYADSVKGRFTISRDNAKNTVYLQMNSLKPEDTAVYYCAARPTVRPVVRFGYWGQGTQVTVSS | high polyreactivity
15 | QVQLVESGGGLVQAGGSLRLSCAASGGIFYSNGMGWYRQAPGKERELVAAITGGDITDYADSVKGRFTISRDNAKNTVYLQMNSLKPEDTAVYFCAVESYPPDYGPRFGSWGQGTQVTVSS | low polyreactivity
16 | QVQLVESGGGLVQAGGSLRLSCAASGGIFYTNAMGWYRQAPGKERELVAAISRSGGSTYYADSVKGRFTISRDNAKNTVYLQMNSLKPEDTAVYYCAARVYVYGYSYDYWGQGTQVTVSS | high polyreactivity
17 | QVQLVESGGGLVQAGGSLRLSCAASGGIFYYYAMGWYRQAPGKERELVATISNGGSTYYADSVKGRFTISRDNAKNTVYLQMNSLKPEDTAVYYCAADSSSDQYRYFPFDHWGQGTQVTVSS | high polyreactivity
18 | QVQLVESGGGLVQAGGSLRLSCAASGGIFYYYTMGWYRQAPGKERELVAAINWSGGSTYYADSVKGRFTISRDNAKNTVYLQMNSLKPEDTAVYYCNAVYRHPVTYGYWGQGTQVTVSS | high polyreactivity
19 | QVQLVESGGGLVQAGGSLRLSCAASGGIITYYDMGWYSQAPGKDREFVAAINVSGTRTYYADSVKGRFTISRDNAKNTVYLEMNSLKPEDTAVYYGATRYRVGFFSWYDYWGQGTQVTVSS | high polyreactivity
20 | QVQLVESGGGLVQAGGSLRLSCAASGGILDTYAMGWYRQAPGKERELVAAITSGGNTNYADSVKGRFTISRDNAKNTVYLQMNSLKPEDSAVYYCNVVTWYYVFRPWEYEYWGQGTQVTVSS | low polyreactivity
21 | QVQLVESGGGLVQAGGSLRLSCAASGGILDTYAMGWYRQAPGKERELVAAITSGGNTNYADSVKGRFTISRDNAKNTVYLQMNSLKPEDTAVYYCNVVTWYYVFRPWEYDYWGQGTQVTVSS | low polyreactivity
22 | QVQLVESGGGLVQAGGSLRLSCAASGGILETNAMGWYRQAPGKERELVAAIDFSAGSTYYADSVKGRFTISRDNAKNTVYLQMNSLKPEDTAVYYCATRLGVLYDYWGQGTQVTVSS | low polyreactivity

Row | Sequence | polyreactivity (PSR sort gate)
23 | QVQLVESGGGLVQAGGSLRLSCAASGGILHSYAMGWYRQAPGKERELVAAISGSGGSTYYADSVKGRFTISRDNAKNTVYLQMNSLKPEDTAVYYCNAVHHYPEHIGGGYWGQGTQVTVSS | low polyreactivity
24 | QVQLVESGGGLVQAGGSLRLSCAASGGILSDYAMGWYRQAPGKERELVAAITISGGRTNYADSVKGRFTFSRDNAKNTVYLQMNSLTPEDTAVYYCYKLPWEYDYWGQGTQVTVSS | low polyreactivity
25 | QVQLVESGGGLVQAGGSLRLSCAASGGIVRLYGMGWDRQAPGKEMEFVAAISSGGGRTYYADSVKGRFTLSRDNAKNTVYLQMNSLKPEDTAVYYCNAELNWYYYIHLDYWGQGTQVTVSS | low polyreactivity
26 | QVQLVESGGGLVQAGGSLRLSCAASGGNFESNAMGWYRQAHGKERELVAAISWSGGTTYYADSVKGRFTISRDNAKNTDFLQMNSLKPEDTAVYYCAKVPFSYRSFGYWGQGTQVTVSS | low polyreactivity
27 | QVQLVESGGGLVQAGGSLRLSCAASGGNFKRYAMGWYRQAPGKERELVAAISGRGGSTYYADSVKGRFTISRDYAKNTVYLQMNSLKPEDTAVYYCDAYWRYRTDMDYWGQGTQVTVSS | high polyreactivity
28 | QVQLVESGGGLVQAGGSLRLSCAASGGNFRLYAMGWYSPAPGKERELVAAINGGGSTNYADSVKGRFTISRDNAKNTVYLQMNSLKPEDTAVYYCNAVQYYRFQVYEYDYWGQGTQVTVSS | high polyreactivity
29 | QVQLVESGGGLVQAGGSLRLSCAASGGNFRYYAMGWYRQAPGKERELVAAITRGGRTSYADSVKGRFTISRDNAKNTVYLQMNSLKPEDSAVYYCNAKRPYQEHNSYGYWGQGSQVTVSS | high polyreactivity
30 | QVQLVESGGGLVQAGGSLRLSCAASGGNFSLNAMGWYRQAPGKERELVATISWSGTSTHYADSVKGRFTISRDNAKNTVYLQMNSLKPEDTAVYYCNTRLYGRDYSWYDYWGQGTQVTVSS | high polyreactivity
31 | QVQLVESGGGLVQAGGSLRLSCAASGGNFYYYVMGWYRQAPGKERELVAAITWSGGSTSYADSVKGRFTISRDNAKNTVYLQMNSLKPEDTAVYYCNADSTTQDYDYWGQGTQVSVSS | low polyreactivity
32 | QVQLVESGGGLVQAGGSLRLSCAASGGTCSKYAMGWYRQARGKEREFVAAITVSGGGTYYADSVKGRFTISRDNAKNTVYLQMNSLKTEDTAVYYCAADLAWTASDYWGQGTQVTLSS | low polyreactivity
33 | QVQLVESGGGLVQAGGSLRLSCAASGGTFAEYVMGRYRQAPGKERELVAAIDWSGGSTYYADSVKGRFTISRDNAKNTVYFQMNSLKPEDTALYYCAKGPGYGFYKLMSYDSWGQGTQVTVSS | low polyreactivity
34 | QVQLVESGGGLVQAGGSLRLSCAASGGTFAGYAMGWYRLAPGKERELVAAISWSSGRTYYADSVKGRFTISRDNAKNTVYLQMNSLKPEDTAVYYCNVLRYRGYDYWGQGTQVTVSS | high polyreactivity
35 | QVQLVESGGGLVQAGGSLRLSCAASGGTFAGYAMGWYRQAPGKERELVAAIRWSGGRTYYADSVKGRFTISRDNAKNSVYLQMNSLKPEDTAVYYCAANGHGRVYFEMDYWGQGTQVTVSS | high polyreactivity
36 | QVQLVESGGGLVQAGGSLRLSCAASGGTFARNTMGWYRQAPGKERELVAAITRGGSSTYYADSVKGRFTISRDNAKNTVYLQMNSLKPEDTAVYYCNKSLRWRYPYYGTTGRYDYWGQGTQVTVSS | high polyreactivity
37 | QVQLVESGGGLVQAGGSLRLSCAASGGTFAVNVMGWYRQAPGKERELVAAITSNGGSTYYADSVKGRFTISRDNAKNTVYLQMNSLTPEDTAVYYCAAEGSGWYTGHYYYWGQGTQVTVSS | low polyreactivity
38 | QVQLVESGGGLVQAGGSLRLSCAASGGTFAYYTMGWYRQAPGKERELVAAISSGGRTNYADSVKGRFTISRDNAKNTVYLQMNSLKPEDTAVYYCAAESPLVYYSYPAYYKYYEYEYWGQGTQVTVSS | low polyreactivity
39 | QVQLVESGGGLVQAGGSLRLSCAASGGTFDNYAMGWYRQAHGKERELVAAISWSGDNTYYADSVKGRFTISRDNAKNTVYLQMNSLKPEVTAVYYCAAVYFWYSYDEGYTAYDYWGQGTQVTVSS | low polyreactivity
40 | QVQLVESGGGLVQAGGSLRLSCAASGGTFDVYAMGWYRQAPGKERELVAAISIGGSTYYADSVKGRFTISRDNAKNTVSLQMNSLKPEDTAVYYCAADVNSRYSWRRWYAYDYWGQGTQVTVSS | high polyreactivity
41 | QVQLVESGGGLVQAGGSLRLSCAASGGTFENYPMGWYRQAPGKERELVAAISSGGSTNYADSVKGRFTISRDNAKNTVYLQMNSLKPEDTAVYYCARYRVWGSNGHKLFHYDYWGQGTQVTVSS | low polyreactivity
42 | QVQLVESGGGLVQAGGSLRLSCAASGGTFFVYMGGYRQAPGNERELVADISGSGGGTYYADSVKGRFTISRDNAKNTVYLQMNSLKPEDTAVYYCATDVPTGIIRMYWGQGTQVTVSS | low polyreactivity
43 | QVQLVESGGGLVQAGGSLRLSCAASGGTFGRYAMGWYRQAPGKERELVAAITWRVGSTYADSVKGRFTISRDNAKNTVYLQMNSLKPEDTAVYYCAARRRAPGTKYYYWGQGTQVTVSS | low polyreactivity
